Experimental data: patent publication US7223734B2, “Plasma protein-binding ligands” (The American National Red Cross, priority 2002, dated 2007)
Non-standard residues stand in square brackets, D forms with d. No end group written: not given here.

Experiments:
[1] = target: T1, API (Homo sapiens, UniProt P01009); assay: Purification of API from F1-Apo-depleted plasma on AKVSKG column (Example 7); assay type: binding
T1 construct: from tissue; host or cells: human plasma (whole, fibrinogen-depleted or F1-Apo-depleted)
Protocol: (§1) Conditions that prevented the binding of albumin from F1-Apo depleted plasma were identified. The capture of albumin by AKVSKG (SEQ ID NO: 45) and D-WWLHIN (SEQ ID NO: 33) can be prevented in the presence of 50 mM caproic acid or 1.0–2.2 M NaCl, respectively. An example for API purification with AKVSKG (SEQ ID NO: 45) is provided. F1-Apo-depleted plasma (10.7 ml) containing 50 mM caproic acid, was applied at 0.4 ml/min (LV=30 cm/h; RT=5.1) onto a 2.0 ml column (CF=0.785 cm^2) that had been equilibrated with 0.14 M NaCl, 0.020 M sodium citrate, pH 7.0 (EQ buffer). After the column was washed with 19 CVs of EQ buffer to baseline, API protein was eluted with 2.0 M NaCl, 0.020 M sodium citrate, pH 6.0. The column was regenerated with 2.0 M guanidine-HCl, 2% Sarkosyl and 2% acetic acid and stored in 20% methanol.

[2] = target: T2, albumin (Homo sapiens, UniProt P02768); assay: Albumin in AKVSKG / D-WWLHIN evaluation (Example 7); assay type: binding; conditions: for binding of albumin in plasma: initial evaluation
T2 construct: from tissue; host or cells: human plasma (fibrinogen-depleted or F1-Apo-depleted)
Protocol: as §1

[3] = target: T1, API; assay: Primary screening of 6-mer library for API-binding ligands; conditions: bead screening, immunodetection / radiolabel
Protocol: Peptide libraries attached to Toyopearl-AF Amino 650M resin or Tentagel resin were evaluated with 14C-labeled fibrinogen and API. All steps were performed at room temperature. Specifically, 20 mg of Toyopearl resin beads or 40 mg of Tentagel resin beads were suspended in 20% methanol for a minimum of 2 hours in 15 ml conical polypropylene tubes (Corning). After rinsing with distilled water, the resin beads were equilibrated in 0.15 M NaCl, 0.020 M sodium citrate, pH 7.3. The resin beads were then blocked for 2 hours with 1% casein (Sigma) in 0.15M NaCl, 0.020M sodium citrate, pH 7.3. Following blocking, the resin beads were centrifuged and the supernatant removed. A solution containing 1 mM of C^14-labeled fibrinogen or 30 μM of C^14-labeled API was applied to the resin beads in the blocking solution in the presence of 0.1% Tween-20 (Sigma). The materials were incubated for 2 hours. The resin beads were washed with 0.15 M NaCl, 0.020 M sodium citrate, 0.05% Tween-20, pH 7.3, in a batch method (fibrinogen ligands) or in disposable BioRad 10 ml columns (API ligands) until radiation counts reached the background level of less than 40 DPM. The resin beads were divided into separate tubes to obtain approximately 5–10 mg of resin beads per sheet. This was accomplished by mixing each aliquot of resin beads with 20–22 ml of 1% low melting agarose solution (Sigma) at less than 40° C., and rapidly pouring the mixture onto GelBond® film sheets (BMA Cat. No. 53749, 16×18 cm; Cat. No. 53759, 12.5×24.5 cm). Spreading of the resin beads to the edge of the gel sheets was prevented by creating frames (about 23 cm×about 10 cm or about 15 cm×about 15 cm) with several layers of masking tape. About 20–22 ml of resin bead-agarose mixture was plated on each GelBond sheet. Special care was taken to spread the beads in an even monolayer to facilitate identification and isolation of individual “hot” beads. The agarose gel was then air-dried overnight and placed, bead side down, on X-ray film (Kodak Biomax MR). The agarose and autoradiography film were exposed for 4–14 days followed by a second exposure of 7 days in an about 20 cm×about 25 cm stainless steel cassette. Afterwards, the films were taped together and marked with several staple holes to ensure proper alignment of beads in agarose to film. After the films were developed, the positive beads that appeared on both films were identified under the microscope and picked by aligning the developed film(s) and agarose gel via the staple holes. Beads to be sequenced were carefully picked by cutting a square trench around the bead with a scalpel, and hydrating this area with distilled water. […]

[4] = target: T1, API; assay: Purification of API from F1-Apo-depleted plasma on HFVAPH column (Example 6); assay type: binding
Protocol: (§2) Fibrinogen and Apo-A1 lipoprotein-depleted plasma (prepared in Example 5) was loaded at a linear velocity of 30 cm/hour (0.4 ml/min; RT=5.1) onto 2.0 ml column (CF=0.785 cm^2) that had been equilibrated with 0.14 M NaCl, 0.020 M sodium citrate, pH 7.0 (EQ buffer). After the column was washed with EQ buffer and 2.0 M NaCl, 0.020 M sodium citrate, pH 6.0, to baseline, the API protein was eluted with 2.0 M NaCl, 1% Tween 20, 0.020 M sodium citrate, pH 6.0. The column was regenerated with 2.0 M guanidine-HCl, 2% Sarkosyl and 2% acetic acid and stored in 20% methanol. SDS-PAGE analysis of in-process samples (reduced and non-reduced samples) was performed using a Novex 8–16% gradient gel. Not all of the API was quantitatively eluted, but could be eluted using 2M guanidine. Purification of API protein to approximately 70% purity was accomplished with ligand HFVAPH (SEQ ID NO: 46) (isolated from an L-Library).

[5] = target: T2, albumin; assay: Albumin in HFVAPH column run (Example 6); assay type: binding
Protocol: as §2

[6] = target: T3, Apo-A1 lipoprotein (Homo sapiens, UniProt P02647); assay: Apo-A1 lipoprotein purification from fibrinogen-depleted plasma on peptide resin column (Example 4); assay type: binding
T3 construct: from tissue; host or cells: human plasma (whole or fibrinogen-depleted)
Protocol: Apo-A1 lipoprotein purification was accomplished with D-WWLHIN (SEQ ID NO: 33) peptides and several analogs. Indeed, about 100% Apo-A1 lipoprotein depletion from plasma was repeatedly obtained with D-WWLHAN (SEQ ID NO: 56) and D-WWLHIN (SEQ ID NO: […]). Fourteen milliliters of fibrinogen-depleted plasma was loaded onto a 2.3 ml column (CF=0.785 cm^2) at 0.4 ml/min. (LV=30 cm/H; RT=5.8) that had been equilibrated with 0.14 M NaCl, 0.020 M sodium citrate, pH 7.0 (EQ buffer). After the column was washed with EQ buffer to baseline, Apo-A1 lipoprotein was eluted with 2.0 M NaCl, 1% Tween-20, 0.020M sodium citrate, pH 7.0. The column was regenerated with 2.0 M guanidine-HCl, 2% Sarkosyl, and 2% acetic acid and stored in 20% methanol.

[7] = Elution Pool (without dialysis)

T1 sequence (P01009 25-418): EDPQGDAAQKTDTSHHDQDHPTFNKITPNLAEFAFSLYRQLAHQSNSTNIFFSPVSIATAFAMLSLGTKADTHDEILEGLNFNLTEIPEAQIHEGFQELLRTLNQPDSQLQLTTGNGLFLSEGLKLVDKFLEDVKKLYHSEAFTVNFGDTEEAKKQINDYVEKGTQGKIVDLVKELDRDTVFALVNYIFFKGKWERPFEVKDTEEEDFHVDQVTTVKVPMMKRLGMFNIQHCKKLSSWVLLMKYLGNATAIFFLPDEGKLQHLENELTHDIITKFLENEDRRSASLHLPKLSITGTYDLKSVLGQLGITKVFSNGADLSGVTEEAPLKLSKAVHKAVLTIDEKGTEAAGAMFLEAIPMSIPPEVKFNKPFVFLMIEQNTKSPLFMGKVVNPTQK
T3 sequence (P02647 25-267 limits assumed): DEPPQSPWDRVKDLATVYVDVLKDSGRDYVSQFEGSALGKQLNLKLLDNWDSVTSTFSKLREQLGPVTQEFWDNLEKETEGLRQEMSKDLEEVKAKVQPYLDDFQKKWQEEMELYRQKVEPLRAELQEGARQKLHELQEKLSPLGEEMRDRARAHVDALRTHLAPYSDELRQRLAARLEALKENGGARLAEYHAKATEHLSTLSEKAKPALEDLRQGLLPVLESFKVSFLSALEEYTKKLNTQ

AKVSKG ([dA]KVSKG; not fully specified (residues 2, 3, 4, 5))
captured API protein recovered ([1]; 2.0 M NaCl elution pool, nephelometric analysis): 71% | API ([1]; Elution (1% Tween)): 0.05 mg/mL | Total API ([1]; Elution (1% Tween)): 0.5 mg | API ([1]; Elution (2 M NaCl)): 0.76 mg/mL | Total API ([1]; Elution (2 M NaCl)): 7.6 mg | Total API ([1]; Flow through + Post Wash, load 12.7 mg): 2.0 mg | API ([1]; Flow through + Post Wash, plasma load 10.7 ml, 1.19 mg/ml, 50 mM caproic acid): 0.07 mg/mL | API ([1]; Wash (0.3 M NaCl)): 0.11 mg/mL | Total API ([1]; Wash (0.3 M NaCl)): 1.3 mg | API ([1]; Wash, first 2.0 ml fraction): 0.06 mg/mL | Total API ([1]; Wash, first 2.0 ml fraction): 0.1 mg | API ([1]; Wash, second 2.0 ml fraction): <0.04 mg/mL | purity of the API eluate ([1]; densitometric analysis): 85% | Albumin ([2]; Elution (1% Tween)): <0.02 mg/mL | Albumin ([2]; Flow through + Post Wash, nephelometric determination, load 20 mg/ml): 7.8 mg/mL | Albumin ([2]; Wash (0.3 M NaCl)): 0.63 mg/mL | Albumin ([2]; Wash, first 2.0 ml fraction): 0.14 mg/mL | Albumin ([2]; Wash, second 2.0 ml fraction): 0.06 mg/mL | capture of albumin from F1-Apo depleted plasma ([2]; in the presence of 50 mM caproic acid): prevented | binding of albumin in plasma [2]: binds albumin in addition to API protein | identified as API-binding peptide ligand from the 6-mer library [3]: API-binding

HFVAPH
purity of purified API protein [4]: approximately 70% | API ([4]; 2 M Guanidine #23): 0.1 mg/mL | Total API ([4]; 2 M Guanidine #23): 0.4 mg | Total API ([4]; Elution Pool (with dialysis)): 1.2 mg | API ([4]; Elution Pool (with dialysis), 2.0 M NaCl, 1% Tween 20): 0.15 mg/mL | Total API [4, 7]: 1.68 mg | API ([4]; Elution Pool (without dialysis), 2.0 M NaCl, 1% Tween 20): 0.21 mg/mL | Total API ([4]; Flow through, load 7.03 mg): 3.36 mg | API ([4]; Flow through, load 9.5 ml, 0.74 mg/ml): 0.21 mg/mL | API ([4]; Postwash): <0.04 mg/mL | Albumin ([5]; 2 M Guanidine #23): <0.02 mg/mL | Albumin ([5]; Elution Pool (with dialysis)): <0.02 mg/mL | Albumin [5, 7]: <0.02 mg/mL | Albumin ([5]; Flow through, load 22.6 mg/ml): 12.6 mg/mL | Albumin ([5]; Postwash): 0.93 mg/mL | albumin binding from plasma ([5]; in the presence of sodium citrate): does not bind albumin | identified as API-binding peptide ligand from the 6-mer library [3]: API-binding

WWLHIN ([dW]WLHIN; not fully specified (residues 2, 3, 4, 5, 6)) [D-WWLHIN]
Apo-A1 lipoprotein depletion from plasma [6]: about 100% | capture of albumin from F1-Apo depleted plasma ([2]; in the presence of 1.0–2.2 M NaCl): prevented | binding of albumin in plasma [2]: binds albumin in addition to API protein | identified as API-binding peptide ligand from the 6-mer library [3]: API-binding
